These results are taken from patent US20190023741A1.

Experiment [1] addresses Aβ1-20.
Experiment [2] concerns the target T1, Aβ11-29.
T1 sequence (peptide): EVHHQKLVFFAEDVGSNKG

Sequence of Aβ1-20 (peptide, as listed by the source): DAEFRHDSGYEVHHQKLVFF

As to SKGQA [ANA-SA5], the results for the hydrolysis activity: remaining HPLC peak of the substrate in experiment [1] and in experiment [2] were 49.6% and 72%, respectively.
